One block for each binder: values may come before it.
Legend:
[1] = molecular target: T1, TLT-1 receptor on the surface of activated human platelets (human, UniProt Q86YW5 16-311); experiment: cell-based or functional assay
T1 sequence: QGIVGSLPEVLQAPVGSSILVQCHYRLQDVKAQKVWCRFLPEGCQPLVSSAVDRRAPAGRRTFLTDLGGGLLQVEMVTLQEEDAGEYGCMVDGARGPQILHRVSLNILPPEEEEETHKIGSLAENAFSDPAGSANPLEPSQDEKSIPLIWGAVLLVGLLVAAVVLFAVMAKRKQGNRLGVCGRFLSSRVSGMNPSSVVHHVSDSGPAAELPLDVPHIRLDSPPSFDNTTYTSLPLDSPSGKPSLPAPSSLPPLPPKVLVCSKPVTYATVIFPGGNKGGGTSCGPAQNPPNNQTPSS

[2] = molecular target: T2, TLT-1 18-188 relipidated in 20:80 PS:PC vesicles (human, UniProt Q86YW5 18-188); experiment: cell-based or functional assay
T2 sequence: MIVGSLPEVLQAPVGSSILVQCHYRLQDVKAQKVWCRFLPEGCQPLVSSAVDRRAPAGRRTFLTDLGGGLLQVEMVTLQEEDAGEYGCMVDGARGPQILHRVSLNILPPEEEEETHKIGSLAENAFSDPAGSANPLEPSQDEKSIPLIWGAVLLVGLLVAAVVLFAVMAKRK

[3] = molecular target: T3, human fibrinogen (HCI-0150R, Haematologic Technologies) (human, UniProt P02671 20-629; P02675 31-491; P02679 27-437, limits assumed); experiment: SPR (Biacore T100), TLT1 immobilised on CM5, fibrinogen as analyte
T3 construct: Chain composition is general knowledge
T3 sequence (looked up) 1: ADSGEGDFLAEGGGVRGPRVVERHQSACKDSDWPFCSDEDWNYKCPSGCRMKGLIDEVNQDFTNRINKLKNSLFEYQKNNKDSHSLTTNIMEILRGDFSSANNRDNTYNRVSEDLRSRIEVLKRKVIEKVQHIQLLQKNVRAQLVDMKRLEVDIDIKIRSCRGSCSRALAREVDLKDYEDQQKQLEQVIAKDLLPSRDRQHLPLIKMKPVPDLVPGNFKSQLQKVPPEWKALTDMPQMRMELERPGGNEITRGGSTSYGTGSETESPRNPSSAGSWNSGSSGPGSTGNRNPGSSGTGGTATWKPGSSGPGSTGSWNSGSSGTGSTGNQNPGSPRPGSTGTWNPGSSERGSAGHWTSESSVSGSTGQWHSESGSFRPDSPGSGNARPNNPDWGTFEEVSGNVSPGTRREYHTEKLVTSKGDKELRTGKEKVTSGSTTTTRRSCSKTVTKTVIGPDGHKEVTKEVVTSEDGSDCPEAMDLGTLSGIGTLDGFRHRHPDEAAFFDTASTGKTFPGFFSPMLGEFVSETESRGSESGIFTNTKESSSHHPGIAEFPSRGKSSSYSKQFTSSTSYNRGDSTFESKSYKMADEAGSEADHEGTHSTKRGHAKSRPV
T3 sequence (looked up) 2: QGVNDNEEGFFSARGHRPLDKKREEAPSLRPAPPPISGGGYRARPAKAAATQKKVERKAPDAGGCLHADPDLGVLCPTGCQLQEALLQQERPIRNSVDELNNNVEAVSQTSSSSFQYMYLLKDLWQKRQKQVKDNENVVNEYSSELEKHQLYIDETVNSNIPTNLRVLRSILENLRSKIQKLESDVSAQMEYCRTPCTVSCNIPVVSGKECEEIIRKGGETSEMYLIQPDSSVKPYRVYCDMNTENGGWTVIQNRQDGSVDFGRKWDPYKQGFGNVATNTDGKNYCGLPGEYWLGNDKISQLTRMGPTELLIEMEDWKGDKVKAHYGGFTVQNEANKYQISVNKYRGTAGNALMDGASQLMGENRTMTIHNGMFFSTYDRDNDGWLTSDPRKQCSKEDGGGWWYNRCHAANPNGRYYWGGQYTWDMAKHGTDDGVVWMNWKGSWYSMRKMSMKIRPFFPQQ
T3 sequence (looked up) 3: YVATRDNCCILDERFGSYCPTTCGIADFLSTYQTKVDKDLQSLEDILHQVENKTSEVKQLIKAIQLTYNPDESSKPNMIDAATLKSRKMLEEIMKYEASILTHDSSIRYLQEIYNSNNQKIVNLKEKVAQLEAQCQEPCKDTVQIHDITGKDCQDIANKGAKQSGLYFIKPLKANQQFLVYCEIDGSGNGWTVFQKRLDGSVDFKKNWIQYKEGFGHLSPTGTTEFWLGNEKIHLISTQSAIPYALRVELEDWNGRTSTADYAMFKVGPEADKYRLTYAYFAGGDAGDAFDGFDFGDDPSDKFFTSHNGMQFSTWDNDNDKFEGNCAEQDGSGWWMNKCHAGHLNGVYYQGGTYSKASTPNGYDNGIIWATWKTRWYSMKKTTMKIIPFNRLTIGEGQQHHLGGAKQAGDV
Method: (§1) Human TLT1 was immobilised to a level of approx 1000 RU on a CM5 chip (50 μg/ml diluted in Na-acetate, pH 4.0) using the standard procedure recommended by the supplier. Four-fold dilutions of human fibrinogen from 200 nM to 0.2 nM were tested for binding to the immobilized TLT1. Running and dilution buffer: 10 mM HEPES, 150 mM, 0.005% p20, pH 7.4. Regeneration was obtained by 10 mM Glycine, pH 1.7. Determination of kinetic and binding constants (kₒₙ, koff, KD) was obtained assuming a 1:1 interaction of TLT1 and fibrinogen using the Biacore T100 evaluation software.

[4] = molecular target: T3, human fibrinogen (HCI-0150R, …); experiment: SPR (Biacore T100), TLT1 immobilised on CM5, fibrinogen 200 nM to 0.2 nM as analyte
Method: as §1

[5] = molecular target: T1, TLT-1 receptor on the surface of …; experiment: flow cytometry on activated human platelets, detection: anti HPC4 tag ab.

FX activation: response with resting platelets relative to activated platelets [1]: 8 % of the response with activated platelets | FVII-mediated FXa generation % Activity lipidated TLT-1 [2]: 97%
B1: Fab 0012-LC-L4a-hTF.1-219; VH-CH1-HPC4 (other)
light: DVVMTQTPLSLPVSLGDQASISCRSSQSLVHRNGNTYFHWCLQKPGQSPKLLIYKVSNRFSGVPDRFSGSGSGTDFTLKISRVEAEDLGVYFCSQSTHVPYTFGGGTKLEIKRTVAAPSVFIFPPSDEQLKSGTASVVCLLNNFYPREAKVQWKVDNALQSGNSQESVTEQDSKDSTYSLSSTLTLSKADYEKHKVYACEVTHQGLSSPVTKSFNRGECGSGGGGSGGGGSGGGGSSGTTNTVAAYNLTWKSTNFKTILEWEPKPVNQVYTVQISTKSGDWKSKCFYTTDTECDLTDEIVKDVKQTYLARVFSYPAGNVESTGSAGEPLYENSPEFTPYLETNLGQPTIQSFEQVGTKVNVTVEDERTLVRRNNTFLSLRDVFGKDLIYTLYYWKSSSSGKKTAKTNTNEFLIDVDKGENYCFSVQAVIPSRTVNRKSTDSPVECMGQEKGEFRE
heavy: EVKLLESGGGLVQPGGSLKLSCAASGFDFSRYWMTWVRQAPGKGLEWIGEINPDSSTINYTPSLKDKFIISRDNAKNTLYLQMSEVRSEDTALYYCASGVFTSWGQGTLVTVSAASTKGPSVFPLAPCSRSTSESTAALGCLVKDYFPEPVTVSWNSGALTSGVHTFPAVLQSSGLYSLSSVVTVPSSSLGTKTYTCNVDHKPSNTKVDKRVESKEDQVDPRLIDGK

Kd [3]: 94 nM | koff [3]: 0.000392 s⁻¹ | kon [4]: 4170 M⁻¹ s⁻¹
B2: TLT1 (human TLT-1, reagent of the SPR studies, source NN) (receptor)
chain: QGIVGSLPEVLQAPVGSSILVQCHYRLQDVKAQKVWCRFLPEGCQPLVSSAVDRRAPAGRRTFLTDLGGGLLQVEMVTLQEEDAGEYGCMVDGARGPQILHRVSLNILPPEEEEETHKIGSLAENAFSDPAGSANPLEPSQDEKSIP

binding result [5]: binds
B3: Fab 0012-LC-HPC4; VH-CH1 (Fab)
heavy: EVKLLESGGGLVQPGGSLKLSCAASGFDFSRYWMTWVRQAPGKGLEWIGEINPDSSTINYTPSLKDKFIISRDNAKNTLYLQMSEVRSEDTALYYCASGVFTSWGQGTLVTVSAASTKGPSVFPLAPCSRSTSESTAALGCLVKDYFPEPVTVSWNSGALTSGVHTFPAVLQSSGLYSLSSVVTVPSSSLGTKTYTCNVDHKPSNTKVDKRVESK
light: DVVMTQTPLSLPVSLGDQASISCRSSQSLVHRNGNTYFHWCLQKPGQSPKLLIYKVSNRFSGVPDRFSGSGSGTDFTLKISRVEAEDLGVYFCSQSTHVPYTFGGGTKLEIKRTVAAPSVFIFPPSDEQLKSGTASVVCLLNNFYPREAKVQWKVDNALQSGNSQESVTEQDSKDSTYSLSSTLTLSKADYEKHKVYACEVTHQGLSSPVTKSFNRGECEDQVDPRLIDGK
notes: Anti-TLT-1 Fab without tissue factor; also called 0010; 0010 Fab

Source: US20120178908A1 (Novo Nordisk, published 2012)
